Measured values taken from patent publication US20130309222A1 (Janssen / Centocor, published 2013).
Ends that are not written are not given here.

B1: biotinylated, chemically synthesized peptide having SEQ ID NO: 10 (peptide)
peptide: AGVWCGDETLPPSICFR
modifications: cysteine pairing not given here; also: biotinylated, position not given here
notes: Fmoc solid phase synthesis; also called 1067B
B2: biotinylated, chemically synthesized peptide having SEQ ID NO: 2 (peptide)
peptide: AGYVCDPAGPNCWA
modifications: cysteine pairing not given here; also: biotinylated, position not given here
notes: Fmoc solid phase synthesis; also called 1011A

Experiments:
infliximab [1] = test: SPR (Biacore S51), biotinylated peptide on streptavidin chip, infliximab as analyte, 1:1 Langmuir fit, average of N=2
Sequence of infliximab (VH, as listed by the source, chain 1 of 2): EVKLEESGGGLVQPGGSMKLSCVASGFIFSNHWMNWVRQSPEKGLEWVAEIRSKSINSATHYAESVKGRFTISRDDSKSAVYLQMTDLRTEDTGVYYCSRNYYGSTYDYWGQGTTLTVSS
Sequence of infliximab (VL, as listed by the source, chain 2 of 2): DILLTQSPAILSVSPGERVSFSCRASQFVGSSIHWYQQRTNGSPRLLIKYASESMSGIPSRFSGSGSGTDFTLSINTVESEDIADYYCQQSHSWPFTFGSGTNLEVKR

infliximab [2] = test: ELISA, infliximab captured on goat anti-human Fc, biotinylated peptide titrated, streptavidin-HRP, luminescence

Row | Kd (infliximab [1]) | EC50 (read off the curve) (infliximab [2]) | Binder
1 | 9.17 nM | ~10000 nM | B1
2 | 17.1 nM | ~3000 nM | B2
